Data set [1] has as its target T1, p58C272-464 (DNA primase regulatory subunit C-terminal domain) (human, UniProt P49643 272-464).
T1 sequence: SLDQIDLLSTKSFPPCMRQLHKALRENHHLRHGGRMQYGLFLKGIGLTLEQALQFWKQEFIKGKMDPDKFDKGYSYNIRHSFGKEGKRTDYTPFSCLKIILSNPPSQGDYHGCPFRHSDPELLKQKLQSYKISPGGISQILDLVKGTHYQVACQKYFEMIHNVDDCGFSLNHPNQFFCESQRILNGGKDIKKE
Briefly: fluorescence anisotropy; 20 mM MES pH 6.5, 50 mM NaCl, 2 mM DTT (plus 0.05% Tween for FI), 50 nM substrate, 25 C; 15 min incubation at room temperature. The note with it: protein: recombinant; tags: 6xHis tag cleaved with H3C protease; label: 5'-6FAM on DNA template (S4 Dataset says FITC); 12 bp RNA-DNA hybrid; template 5' overhang 4 nt and 3' overhang 6 nt. On the technique in general: Fluorescence polarisation rises when a labelled molecule tumbles more slowly, as on binding a larger partner.

The target of data set [2] is T2, p58C266-464 (DNA primase regulatory subunit C-terminal domain) (human, UniProt P49643 266-464).
T2 sequence: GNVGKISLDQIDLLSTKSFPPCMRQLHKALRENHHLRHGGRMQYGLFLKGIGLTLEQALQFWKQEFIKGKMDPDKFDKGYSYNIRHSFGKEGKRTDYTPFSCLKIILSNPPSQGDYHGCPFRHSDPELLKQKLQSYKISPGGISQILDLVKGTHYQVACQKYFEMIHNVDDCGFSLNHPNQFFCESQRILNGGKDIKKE
Described as above. The note with it: protein: recombinant; tags: 6xHis tag cleaved with H3C protease; label: 5'-6FAM on DNA template (S4 Dataset says FITC); 12 bp RNA-DNA hybrid; template 5' overhang 4 nt and 3' overhang 6 nt.

The target of data set [3] is T1, p58C272-464 (DNA primase regulatory …). The data set is described as follows: fluorescence intensity (Monolith MST instrument); 20 mM MES pH 6.5, 50 mM NaCl, 2 mM DTT (plus 0.05% Tween for FI), 50 nM substrate, 25 C; 15 min incubation at room temperature. The note with it: protein: recombinant; tags: 6xHis tag cleaved with H3C protease; label: 5'-Cy5 on DNA template; 8 bp RNA-DNA hybrid; template 5' overhang 4 nt and 3' overhang 6 nt.

Data set [4] deals with T2, p58C266-464 (DNA primase regulatory …). The description is as above. The following applies: protein: recombinant; tags: 6xHis tag cleaved with H3C protease; label: 5'-Cy5 on DNA template; 8 bp RNA-DNA hybrid; template 5' overhang 4 nt and 3' overhang 6 nt.

The values below come from PMC6298731, “Functional and structural similarity of human DNA primase [4Fe4S] cluster domain constructs”.

B1: FA substrate: 12 nt RNA-primed 22 nt DNA template (DNA:RNA)
RNA: GGACCUCCAGGA
DNA: AAACTCCTGGAGGTCCAACATA
modifications: 5'-triphosphate on RNA primer (RNA printed with T as S5; written here with U)
What is called Kd is the equilibrium constant for the complex coming apart. For the molecule B1, the Kd in data set [1] was 3.6 ± 0.1 µM; in data set [2] it was 2.1 ± 0.1 µM.

B2: MST/FI substrate: 8 nt RNA-primed 18 nt DNA template (DNA:RNA)
RNA: GGCUCGGA
DNA: AAACTCCGAGCCAACATA
modifications: 5'-triphosphate on RNA primer
As for B2, the Kd in data set [3] amounted to 2.7 ± 0.3 µM; in data set [4], 3.4 ± 0.5 µM.
